Six molecules from patent publication US20230416366A1 (Hoffmann-La Roche, published 2023) can be followed below.

First the molecules themselves.
B1: CD28(SA)_variant_25 (antibody, human IgG1, kappa, L234A L235A)
heavy: not shown
light: not shown
chain: DKTHTCPPCPAPEAAGGPSVFLFPPKPKDTLMISRTPEVTCVVVDVSHEDPEVKFNWYVDGVEVHNAKTKPREEQYNSTYRVVSVLTVLHQDWLNGKEYKCKVSNKALGAPIEKTISKAKGQPREPQVCTLPPSRDELTKNQVSLSCAVKGFYPSDIAVEWESNGQPENNYKTTPPVLDSDGSFFLVSKLTVDKSRWQQGNVFSCSVMHEALHNRFTQKSLSLSP
notes: monovalent one-armed IgG-like construct (hu IgG1 PGLALA), tested from HEK supernatant without purification; also called P1AE3081
B2: CD28(SA)_variant_29 (antibody, human IgG1, kappa, L234A L235A)
heavy: not shown
light: not shown
chain: DKTHTCPPCPAPEAAGGPSVFLFPPKPKDTLMISRTPEVTCVVVDVSHEDPEVKFNWYVDGVEVHNAKTKPREEQYNSTYRVVSVLTVLHQDWLNGKEYKCKVSNKALGAPIEKTISKAKGQPREPQVCTLPPSRDELTKNQVSLSCAVKGFYPSDIAVEWESNGQPENNYKTTPPVLDSDGSFFLVSKLTVDKSRWQQGNVFSCSVMHEALHNRFTQKSLSLSP
notes: monovalent one-armed IgG-like construct (hu IgG1 PGLALA), tested from HEK supernatant without purification; also called P1AE3085
B3: CD28(SA)_variant_27 (antibody, human IgG1, kappa, L234A L235A)
heavy: not shown
light: not shown
chain: DKTHTCPPCPAPEAAGGPSVFLFPPKPKDTLMISRTPEVTCVVVDVSHEDPEVKFNWYVDGVEVHNAKTKPREEQYNSTYRVVSVLTVLHQDWLNGKEYKCKVSNKALGAPIEKTISKAKGQPREPQVCTLPPSRDELTKNQVSLSCAVKGFYPSDIAVEWESNGQPENNYKTTPPVLDSDGSFFLVSKLTVDKSRWQQGNVFSCSVMHEALHNRFTQKSLSLSP
notes: monovalent one-armed IgG-like construct (hu IgG1 PGLALA), tested from HEK supernatant without purification; also called P1AE3083
B4: CD28(SA)_variant_26 (antibody, human IgG1, kappa, L234A L235A)
heavy: not shown
light: not shown
chain: DKTHTCPPCPAPEAAGGPSVFLFPPKPKDTLMISRTPEVTCVVVDVSHEDPEVKFNWYVDGVEVHNAKTKPREEQYNSTYRVVSVLTVLHQDWLNGKEYKCKVSNKALGAPIEKTISKAKGQPREPQVCTLPPSRDELTKNQVSLSCAVKGFYPSDIAVEWESNGQPENNYKTTPPVLDSDGSFFLVSKLTVDKSRWQQGNVFSCSVMHEALHNRFTQKSLSLSP
notes: monovalent one-armed IgG-like construct (hu IgG1 PGLALA), tested from HEK supernatant without purification; also called P1AE3082
B5: CD28(SA)_variant_30 (antibody, human IgG1, kappa, L234A L235A)
heavy: not shown
light: DIQMTQSPSSLSASVGDRVTITCRASQNIYVWLNWYQQKPGKAPKLLIYKASNLYSGVPSRFSGSRSGTDFTLTISSLQPEDFATYYCQQGQTYPYTFGQGTKLEIKRTVAAPSVFIFPPSDRKLKSGTASVVCLLNNFYPREAKVQWKVDNALQSGNSQESVTEQDSKDSTYSLSSTLTLSKADYEKHKVYACEVTHQGLSSPVTKSFNRGEC
chain: DKTHTCPPCPAPEAAGGPSVFLFPPKPKDTLMISRTPEVTCVVVDVSHEDPEVKFNWYVDGVEVHNAKTKPREEQYNSTYRVVSVLTVLHQDWLNGKEYKCKVSNKALGAPIEKTISKAKGQPREPQVCTLPPSRDELTKNQVSLSCAVKGFYPSDIAVEWESNGQPENNYKTTPPVLDSDGSFFLVSKLTVDKSRWQQGNVFSCSVMHEALHNRFTQKSLSLSP
notes: monovalent one-armed IgG-like construct (hu IgG1 PGLALA), tested from HEK supernatant without purification; also called P1AE3086
B6: CD28(SA)_variant_31 (antibody, human IgG1, kappa, L234A L235A)
heavy: not shown
light: not shown
chain: DKTHTCPPCPAPEAAGGPSVFLFPPKPKDTLMISRTPEVTCVVVDVSHEDPEVKFNWYVDGVEVHNAKTKPREEQYNSTYRVVSVLTVLHQDWLNGKEYKCKVSNKALGAPIEKTISKAKGQPREPQVCTLPPSRDELTKNQVSLSCAVKGFYPSDIAVEWESNGQPENNYKTTPPVLDSDGSFFLVSKLTVDKSRWQQGNVFSCSVMHEALHNRFTQKSLSLSP
notes: monovalent one-armed IgG-like construct (hu IgG1 PGLALA), tested from HEK supernatant without purification; also called P1AE3087

For this experiment, the target named is T1, human CD28 on Jurkat reporter cells (human, UniProt P10747 19-220).
T1 construct: Endogenous CD28 of Jurkat NFAT / Jurkat IL2 reporter cells; also called hu CD28
Briefly: flow cytometry, MFI (PE) of PE-conjugated anti-human secondary, CHO cells stably overexpressing human CD28; monovalent one-armed IgG from supernatant. Background: A flow cytometer gives signals particle by particle.
Description: Binding was assessed by flow cytometry with a FACS Fortessa (BD, Software FACS Diva). Binding curves were obtained using GraphPadPrism6.
With B1, the binding result is “binds”.
Turning to B2, the binding result is listed as “binds”.
With B3 the entry was “binds”.
On to B4, for which the binding result is “binds”.
In the case of B5 it was “binds”; in that of B6, “binds”.
